The target in the assay is C1s (Kordia, The Netherlands/Enzyme Research Lab. Inc., USA) (UniProt P09871). Briefly: cell-based or functional assay.
UniProt P09871, sequence (P09871 16-688 limits assumed): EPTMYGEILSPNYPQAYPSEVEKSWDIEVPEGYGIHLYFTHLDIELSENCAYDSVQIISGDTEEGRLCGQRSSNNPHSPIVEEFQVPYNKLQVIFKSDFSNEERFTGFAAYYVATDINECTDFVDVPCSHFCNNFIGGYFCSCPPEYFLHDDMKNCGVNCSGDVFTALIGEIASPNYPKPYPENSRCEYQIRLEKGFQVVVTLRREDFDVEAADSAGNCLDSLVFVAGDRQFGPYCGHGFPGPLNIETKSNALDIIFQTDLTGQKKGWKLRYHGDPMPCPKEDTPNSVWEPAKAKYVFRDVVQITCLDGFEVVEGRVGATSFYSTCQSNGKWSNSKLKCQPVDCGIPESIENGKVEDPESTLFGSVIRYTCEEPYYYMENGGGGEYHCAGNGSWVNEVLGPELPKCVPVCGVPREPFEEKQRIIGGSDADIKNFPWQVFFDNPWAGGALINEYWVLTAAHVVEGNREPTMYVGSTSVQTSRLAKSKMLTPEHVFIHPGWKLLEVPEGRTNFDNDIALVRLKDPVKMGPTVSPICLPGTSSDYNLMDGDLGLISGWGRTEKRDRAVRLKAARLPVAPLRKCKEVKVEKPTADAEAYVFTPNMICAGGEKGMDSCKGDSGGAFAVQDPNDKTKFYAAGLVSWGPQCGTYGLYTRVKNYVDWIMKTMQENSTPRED
Take “Cetor (C1 inhibitor purified from pooled human plasma, CLB, The Netherlands) (from UniProt P05155 23-500)”: the functionality index (F.I.): ratio between functionally active C1 inhibitor (C1s inhibition test) and total C1 inhibitor antigen came out at 1.07. Regarding “recombinant human C1 inhibitor purified from milk of transgenic rabbit line 2972p (from UniProt P05155 23-500)”, the functionality index (F.I.): ratio between functionally active C1 inhibitor (C1s inhibition test) and total C1 inhibitor antigen worked out at 1.15. On to “recombinant human C1 inhibitor purified from milk of transgenic rabbit line 2972q (from UniProt P05155 23-500)”, for which the functionality index (F.I.): ratio between functionally active C1 inhibitor (C1s inhibition test) and total C1 inhibitor antigen turned out to be 1.07. For “recombinant human C1 inhibitor purified from milk of transgenic rabbit line 2977q (from UniProt P05155 23-500)”, the functionality index (F.I.): ratio between functionally active C1 inhibitor (C1s inhibition test) and total C1 inhibitor antigen was 0.91.

For the origin of these results see US7067713.
